According to article PMC5464891, “Utilizing combinatorial engineering to develop Tie2 targeting antagonistic angiopoetin-2 ligands as candidates for anti-angiogenesis therapy” (Oncotarget, 2017):
Blank lines part the entries; values can stand above or below the molecule they belong to.

Assays:
[1] = target: Ang2-BD_(C1.70), yeast-displayed (human) (UniProt O15123); experiment: flow cytometry on cells; Ang2-BD displayed on yeast, soluble Tie2-Fc in 20 mM Hepes pH 7.0, 150 mM NaCl, 1% BSA, 1 h at room temperature; detected with anti-human Fc FITC; binding MFI divided by expression MFI (c-Myc) and normalized to Ang2-BDWT
[2] = target: Ang2-BD_(C2.36), yeast-displayed (human) (UniProt O15123); experiment: as above
[3] = target: T1, rhTie2 extracellular domain (human, UniProt Q02763 23-748); experiment: SPR; ProteOn XPR36, rhTie2 extracellular domain amine-coupled to a GLC chip (2100 RU), Ang2-BD variants as analytes, 25°C, 20 mM Hepes pH 7.0, 150 mM NaCl, 1 mM CaCl2; steady state for Ang2-BDWT, two-state model for the variants; details: both partners purified
T1 construct: receptor tyrosine kinase Tie2, recombinant human, extracellular domain; also called immobilized Tie2; recombinant soluble Tie2; source: bought: Sino Biological Inc
T1 sequence (Q02763 23-748): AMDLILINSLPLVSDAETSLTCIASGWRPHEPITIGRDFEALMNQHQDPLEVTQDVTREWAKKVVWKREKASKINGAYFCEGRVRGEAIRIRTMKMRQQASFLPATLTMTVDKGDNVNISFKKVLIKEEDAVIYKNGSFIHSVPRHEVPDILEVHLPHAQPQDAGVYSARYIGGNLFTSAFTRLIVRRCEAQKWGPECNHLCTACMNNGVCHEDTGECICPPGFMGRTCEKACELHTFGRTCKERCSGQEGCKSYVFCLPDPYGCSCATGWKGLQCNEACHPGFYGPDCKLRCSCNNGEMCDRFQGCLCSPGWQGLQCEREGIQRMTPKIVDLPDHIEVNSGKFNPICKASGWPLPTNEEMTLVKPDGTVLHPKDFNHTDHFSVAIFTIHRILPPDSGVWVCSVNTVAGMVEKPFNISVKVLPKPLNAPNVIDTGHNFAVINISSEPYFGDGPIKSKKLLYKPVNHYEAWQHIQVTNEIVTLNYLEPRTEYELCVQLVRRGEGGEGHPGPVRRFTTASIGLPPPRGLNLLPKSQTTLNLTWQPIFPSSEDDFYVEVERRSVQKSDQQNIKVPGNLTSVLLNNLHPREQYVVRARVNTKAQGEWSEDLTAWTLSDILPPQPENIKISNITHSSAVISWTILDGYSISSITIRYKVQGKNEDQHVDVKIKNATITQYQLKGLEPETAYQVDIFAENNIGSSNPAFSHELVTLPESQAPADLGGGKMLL

- fold increase in affinity relative to Ang2-BDWT [1]: 2.5 fold
- fold increase in binding affinity as compared to Ang2-BDWT [2]: 17 fold
Molecule: Recombinant human Tie2 (Ala23-Lys745) Fc fusion, soluble Tie2-Fc (from UniProt Q02763 23-745)

- Kd [3]: 434 nM
B1: Ang2-BDWT, soluble (domain or fragment, human, UniProt O15123 281-496, looked up)
chain: FRDCAEVFKSGHTTNGIYTLTFPNSTEEIKAYCDMEAGGGGWTIIQRREDGSVDFQRTWKEYKVGFGNPSGEYWLGNEFVSQLTNQQRYVLKIHLKDWEGNEAYSLYEHFYLSSEELNYRIHLKGLTGTAGKISSISQPGNDFSTKDGDNDKCICKCSQMLTGGWWFDACGPSNLNGMYYPQRQNTNKFNGIKWYYWKGSGYSLKATTMMIRPADF
notes: N-linked carbohydrates removed with Endo Hf; also called wild-type Ang2-BD; parental Ang2-BD; source: Pichia pastoris GS115, purified from culture supernatant (HisTrap, Endo Hf treatment, Superdex 75); not shown: FLAG, N-terminal, kept
